Source: US7364741B1, “Peptides of human Papilloma virus for use in human T cell response inducing compositions” (priority 1992, dated 2008)

Assays:
[1] = tested on: MLDLQPETT-sensitized T2 cells; test: In vitro induction of primary CTL response and cytotoxicity assay on peptide-sensitized T2 cells; assay type: cell-based, human; conditions: PBL of HLA-A2.1 donor stimulated with 80 μg/ml peptide; cytotoxicity assay on day 49; background: T2 with irrelevant peptide ATELQTTIH
Protocol: The expression of HLA-A2.1 on 174CEM.T2 cells (T2) is increased by incubating T2 cells in medium containing relevant peptide. T2 cells will present the relevant peptide bound to HLA-A2.1 in high amount and therefore are good antigen presenting cells (APC). In the response inducing method described below the T2 cell line is used as APC and post-Ficoll mononuclear cells are used as responder cells.
T2 cells in a concentration of 2×10^6 cells per ml were incubated for 13 h at 37° C. in a T 25 flask (Becton Dickinson, Falcon, Plymouth Engeland cat.nr. 3013) in serum-free IMDM (=Iscoves Modified Dulbecco's Medium: Biochrom KG, Seromed Berlin, Germany, cat.nr. F0465) with glutamine (2 mM, ICN Biochemicals Inc., Costa Meisa, USA, cat.nr. 15-801-55), antibiotics (100 IU/ml penicilline (Brocades Pharma, Leiderdorp, The Netherlands, 100 μg/ml kanamycine (Sigma, St. Louis, USA, K-0245)) and the selected peptide […] (=JWK3; SEQ ID NO:15) in a concentration of 80 μg/ml.
These incubated T2 cells were spun down and subsequently treated in a density of 20×10^6 cells/ml with Mitomycine C (50 μg/ml) in serum-free RPMI (Gibco Paislan, Scotland, cat.nr. 041-02409) medium for 1 h at 37° C. Hereafter the T2 cells were washed three times in RPMI. […]

[2] = molecular target: T1, HLA-A2.1 (Homo sapiens, UniProt P04439, D140Y/D185E/D98H/E176V/E277Q/G131W/G231S/I119V/I121R/I166T/I218V/L300P/L318F/N151K/N90K/P208A/P217A/Q86G/Q94H/R138H/R169H/T345S); assay type: cell-based; conditions: HPV16 peptides, 200 μg/ml peptide, 16 hours, 174CEM.T2 cells
T1 construct: endogenous in cells; host or cells: 174CEM.T2
Protocol: Of all peptides a dilution of 1 mg/ml in 0.9% NaCl was made.
174CEM.T2 cells were cultured in Iscovel's modified Dulbecco's medium (Biochrom KG Seromed Berlin, Germany: F0465) supplemented with 100 IU/ml penicillin (Biocades Pharma, Leiderdorp, The Netherlands), 100 μg/ml kanamycin (Sigma St. Louis, USA:K-0254), 2 mM glutamine (ICN Biomedicals Inc. Costa Mesa, Calif., USA:15-801-55) and 10% fetal calf serum (FCS, Hyclone Laboratories Inc. Logan, Utah, USA:A-1115-L). Cells were cultured at a density of 2.5×10^5/ml during 3 days at 37° C., 5% CO2 in humified air.
174CEM.T2 cells were washed twice in culture medium without FCS and put in serum-free culture medium to a density of 2×10^6 cells/ml. Of this suspension 40 μl was put into a V bottomed 96 well plate (Greiner GmbH, Frickenhausen, Germany: 651101) together with 10 μl of the individual peptide dilutions (of 1 mg/ml). The end concentration is 200 μg/ml peptide with 8×10^4 174CEM.T2 cells. This solution was gently agitated for 3 minutes after which an incubation time of 16 hours at 37° C., 5% CO2 in humified air took place. Then cells were washed once with 100 μl 0.9% NaCl, 0.5% bovine serum albumin (Sigma St. Louis, USA: A-7409), 0.02% NaN3 (Merck Darmstadt, Germany:822335). After a centrifuge round of 1200 rpm the pellet was resuspended in 50 μl of saturating amounts of HLA-A2.1 specific mouse monoclonal antibody BB7.2 for 30 minutes at 4° C. Then cells were washed twice and incubated for 30 minutes with F(ab)2 fragments of goat anti-mouse IgG that had been conjugated with […] (Tago Inc Burlingame, Calif., USA: 4350) in a dilution of 1:40 and a total volume of 25 μl.
After the last incubation, cells were washed twice and fluorescence was measured at 488 nanometer on a FACScan flow-cytometer (Becton Dickinson, Franklin Lakes, N.J., USA).
The 174CEM.T2 cell line expresses “empty” and unstable HLA-A2.1 molecules that can be stabilized when a peptide is binding to the peptide presenting groove of these molecules. […] This leads to an increase in cell surface expression of the HLA-A2.1 molecule.
With background fluorescence level (without adding peptides) set on a Fluorescence Index level of 0, binding of a peptide was regarded positive when the level of fluorescence was ≧0.5.

For “MLDLQPETT [HPV16 peptide 13, residues 12-20 of HPV16 protein E7]”, the “specificity of killing by peptide-induced bulk CTL culture” value [1] was “seemed to be specific for killing MLDLQPETT (SEQ ID NO:15)-sensitized T2 cells”, the “MF (mean HLA-A2.1 fluorescence)” value [2] was 217.6 and the “FI (Fluorescence Index)” value ([2]; background set on 0, binding positive when ≧0.5) was 2.3.
